Measured values as given in patent US20210002358A1 (Janssen / Centocor, published 2021).

Molecular target: T1, soluble tau (control tau, recombinant 2N4R tau, SEQ ID NO: 31) (human, UniProt P10636 2-758)
T1 construct: also called Sol-tau; recombinant WT tau
Test: direct ELISA on 2N4R Tau coated at 1 ng/mL
Method: Binding to recombinant WT (2N4R; SEQ ID NO:31) tau was analyzed by ELISA where full-length Tau protein (1 ng/mL or 10 ng/mL) was directly coated to the plate and incubated with different concentrations of either recombinantly- or hybridoma produced PT82 antibody (FIG. 2). After incubation with antibodies, plates were again washed and 50 μL per well of HRPO labelled anti-mouse antibody (GE Healthcare) (diluted 1:10000 in blocking buffer) was added. After another washing step detection was performed with “One step” TMB (Thermo Scientific) according to the manufacturers' instructions. Plates were analysed in EnVision® 2102 Multilabel Reader (Perkin Elmer, Waltham, Mass., USA). Binding curves were generated using GraphPad Prism7.0 software. […] No substantial difference has been observed between binding profiles of recombinant and hybridoma produced antibodies.

T1 sequence (P10636 other isoform, or with tags, fused parts or gaps limits assumed): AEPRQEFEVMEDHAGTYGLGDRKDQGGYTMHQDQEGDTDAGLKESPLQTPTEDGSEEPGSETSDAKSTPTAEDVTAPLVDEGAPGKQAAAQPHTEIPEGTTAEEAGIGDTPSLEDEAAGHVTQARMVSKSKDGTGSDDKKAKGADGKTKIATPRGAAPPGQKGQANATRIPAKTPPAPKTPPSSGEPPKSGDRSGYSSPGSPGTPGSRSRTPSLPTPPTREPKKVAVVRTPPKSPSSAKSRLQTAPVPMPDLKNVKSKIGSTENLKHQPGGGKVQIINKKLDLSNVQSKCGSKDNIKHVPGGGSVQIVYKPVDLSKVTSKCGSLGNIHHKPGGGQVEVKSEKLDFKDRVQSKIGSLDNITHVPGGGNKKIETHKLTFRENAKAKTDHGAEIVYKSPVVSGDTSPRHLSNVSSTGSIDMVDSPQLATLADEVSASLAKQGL

B1: PT82 mAb (recombinantly expressed, mouse IgG2a/kappa) (antibody, V domains shown)
VH: EVKLEESGGGLVQPGGSMKLSCVASGFTFSNYWMNWIRQSPEKGLEWVAQIRLQSDNYATRYAESVKGRFTISRDESKTSVYLQMNNLRTEDTGIYYCTGGTTYWGQGTLVTVSA
VL: DIVMTQSQKFMSTSVGDRVSITCKASQNVGTAVAWYQQKPGQSPKLLIYSASIRYTGVPDRFTGSGSGTDFTLTINYMQSEDLADYFCQQFSSYPYTFGGGTKLEIK
notes: also called recombinant PT82; mouse PT82
In the case of B1, the “EC50 (read off the curve)” value is reported as about 0.04 µg/mL.
